In patent US20220204621A1 (UCL BUSINESS, published 2022):

How the values were obtained:
[1] = biological target: human Receptor Tyrosine Kinase Like Orphan Receptor 1 (ROR1), full length (human) (UniProt Q01973); test: cell-based or functional assay
[2] = biological target: human ROR1 with the combination of Q(261)H and I(254)V (human, UniProt Q01973 30-937, limits assumed); test: antibody binding to mutated human ROR1 constructs
Chain of human ROR1 with the combination of Q(261)H and I(254)V (Q01973 30-937 I254V/Q261H limits assumed): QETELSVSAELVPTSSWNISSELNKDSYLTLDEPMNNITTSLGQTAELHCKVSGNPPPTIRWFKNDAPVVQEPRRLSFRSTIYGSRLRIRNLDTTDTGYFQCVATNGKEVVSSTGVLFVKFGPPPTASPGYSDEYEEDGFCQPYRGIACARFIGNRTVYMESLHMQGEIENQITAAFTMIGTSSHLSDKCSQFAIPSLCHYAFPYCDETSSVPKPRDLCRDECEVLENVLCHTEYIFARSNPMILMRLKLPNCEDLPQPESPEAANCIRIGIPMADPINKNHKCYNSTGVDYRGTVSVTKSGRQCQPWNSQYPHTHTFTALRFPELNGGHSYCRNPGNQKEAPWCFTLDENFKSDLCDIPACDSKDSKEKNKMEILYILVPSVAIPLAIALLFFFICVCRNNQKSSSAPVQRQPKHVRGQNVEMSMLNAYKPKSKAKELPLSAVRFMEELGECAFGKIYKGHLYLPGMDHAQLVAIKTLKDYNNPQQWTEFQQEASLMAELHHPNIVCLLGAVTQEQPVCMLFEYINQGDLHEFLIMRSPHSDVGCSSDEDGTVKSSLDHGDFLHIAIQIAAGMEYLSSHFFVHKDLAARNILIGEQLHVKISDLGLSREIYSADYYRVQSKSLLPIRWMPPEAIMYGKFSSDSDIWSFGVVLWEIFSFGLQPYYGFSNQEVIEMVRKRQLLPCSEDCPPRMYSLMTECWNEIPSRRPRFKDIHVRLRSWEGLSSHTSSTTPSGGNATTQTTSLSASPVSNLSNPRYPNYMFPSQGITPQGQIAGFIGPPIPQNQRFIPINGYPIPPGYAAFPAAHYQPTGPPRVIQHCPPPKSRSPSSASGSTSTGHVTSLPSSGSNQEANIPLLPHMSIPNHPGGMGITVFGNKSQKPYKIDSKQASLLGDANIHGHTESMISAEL

Chain of human Receptor Tyrosine Kinase Like Orphan Receptor 1 (ROR1), full length (human) (Q01973 30-937): as the sequence (Q01973 30-937 I254V/Q261H limits assumed) above, with V225I, H232Q counted along it

Row | binding result [2] | Binder | cytotoxicity against neuroblastoma cell lines; lowest concentration named (micrograms/ml) [1] | dose dependent cytotoxicity across ROR1 positive pancreatic cell lines (PANC-1, SUIT-2, CFPAC1, HPAF-II, MiaPaCa2, PSN-1); lowest concentration with significant activity [1]
1 |  | ROR1xCD3 BiTE (membrane proximal binding ROR1-BiTE specific for the Frizzled domain) (bispecific antibody, part only; not given: OKT3 scFv and linkers, part only) chain, part: HHHHHHEVQLVESGGGLVQPGRSLKLSCAASGFIFSEHNMAWVRQAPKKGLEWVATISDDGRNTYYRDSMRGRFTISRENARSTLYLQLDSLRSEDTATYYCASHRYNLFDSWGQGVMVTVSSDIQMTQSPSFLSASVGDRVTINCKASQNIDRYLNWYQQKLGEAPKRLLYNTNKLQTGIPSRFSGSGSATDFTLTISSLQPEDFATYFCLQYNSLPLTFGSGTKLEIK | 0.01 | 0.1 ng/mL
2 | no binding | Clone F antibody (antibody, V domains shown, Rat anti-ROR1 antibody from a hybridoma library) VH: EVQLVESGGGLVQPGRSLKLSCAASGFIFSEHNMAWVRQAPKKGLEWVATISDDGRNTYYRDSMRGRFTISRENARSTLYLQLDSLRSEDTATYYCASHRYNLFDSWGQGVMVTVSS VL: DIQMTQSPSFLSASVGDRVTINCKASQNIDRYLNWYQQKLGEAPKRLLYNTNKLQTGIPSRFSGSGSATDFTLTISSLQPEDFATYFCLQYNSLPLTFGSGTKLEIK |  | 
